Measured values reported in the supplement of paper PMC9170038.

System: K4 kissing-loop RNA reporter
Assay: apparent KD of K4 kissing-loop reporter; higher = weaker reporter binding
Details: Eterna round: R107
Procedure: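 RNA-MaP round R107: designed RNA switches with theophylline, tryptophan, arginine or FMN aptamers are transcribed on-chip within common flanks. They are titrated with a labelled K4 kissing-loop RNA reporter in RNA-MaP buffer (100 mM Tris pH 7.5, 80 mM KCl, 4 mM MgCl2), without ligand or with the indicated ligand. Median apparent KD per design.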

[1] = input ligand: theophylline 20 uM
[2] = input ligand: tryptophan 2.4 mM
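Note: bound reporter read as fluorescence of individual clusters on recovered sequencing chips by microscopy, with normalized cluster intensities fitted with a binding model.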

Row | Sequence | apparent KD of K4 kissing-loop reporter (input ligand: FMN 200 uM) | apparent KD of K4 kissing-loop reporter (input ligand: arginine 13.2 mM) | apparent KD of K4 kissing-loop reporter (input ligand: none) | apparent KD of K4 kissing-loop reporter [1] | apparent KD of K4 kissing-loop reporter [2]
1 | UUACGAGUGAUGUUCGAAUAAAUCCAUUCAGAGGAUAUAGUAUUAACUAGAAGGCUGAAACCAACUUCGAGUCAUGUUCGAGGAU [Same State FMN A GF 2] | 271 nM | 324 nM | 277 nM | 514 nM | 269 nM
2 | UUAGAGAUCUCAGGAUAUCAGUGAUGUUGGUGUAAAGAUCUGAGAUAGAAUUCUAUCUCAGAUCAAUGAGAAGGGAGAUCUCAUU [AK3.2 Exc FMN B] | 338 nM | 179 nM | 192 nM | 219 nM | 174 nM
3 | UUAGAGAUCUCAGGAUAUCAGUGAUGUUGGUGUUAAGAUCUGAGAUAGAAUUCUAUCUCAGAUCAAUGAGAAGGGAGAUCUCAUU [AK3 Exc FMN B] | 296 nM | 132 nM | 167 nM | 161 nM | 152 nM
4 | UUAGCUCUAUAGAGCAAGAGGUAUACUGAUACCAGAGGCUAUAGCCUCCCUUGGCAGCGGAUCGAGUGAUGUUCGUAACCUCAUU [AK4.5 SS Theophylline A] | 616 nM | 661 nM | 812 nM | 724 nM | 433 nM
5 | UUAGGAGUGGGAGGAUAUCCUAAUGUGGGUGAUGUUAGUGAUGUUGAAAGUGUAGUGAUGUUGUGCGGAGAAGGUCCAGUGUUGA [BDazzled - #11 - Exc. FMN B] | 212 nM | 133 nM | 210 nM | 192 nM | 157 nM
6 | UUAUAUUUUAUAUUUAGUAGAGCUCUCGCUCGAGGACCGGUACGGCCGCCACUCGAGUGAUGUUCGAGUGGGAGAGCUCUACAUU [AK3.3 EXC Tryptophan A] | 108 nM | 99.5 nM | 94.9 nM | 100 nM | 181 nM
7 | UUAUCUAUAUUCGAUACCAGUACCCUGUGUGUUGAUCCUUUUAUAAGUGAUGUUUAUGAGUACCCUUGGCAGCGGGUAUGGGUUU [KL-XTheo-B17] | 815 nM | 734 nM | 883 nM | 944 nM | 712 nM
8 | UUAUUAAUAACAGAUACCAGUCCAGAAUGAAAACUAUAGUGAUGUUAUAAUAAAGGGAAGGACCCUUGGCAGCUGUAAUAUAUUU [AstrosSSTheB#2] | 525 nM | 427 nM | 497 nM | 452 nM | 394 nM
9 | UUCAGGUGUUCGGCCGCCACUCCAGUGAUGUUGGAGUGGCUUCACAAGGACCAGGACAAUGUAAGGAGGACCGGGAAUAUCGCAG [Leerat] | 143 nM | 110 nM | 131 nM | 115 nM | 125 nM
10 | UUCGUAGUAGGAAACUAUUACGAAAAGGAAGGAGCGGCGAAGAAGCCAGGUAGGUCGCCUAUUGACAGUGAUGUUGUUAUAUAGA [#10] | 144 nM | 239 nM | 176 nM | 205 nM | 162 nM
11 | UUCUGCAUCUCGGCCGCCACUCACUAGUGAUGUUAGUAAGGAGCGACUAGACAUGUCCCGUUGUUGAGGACCGGGAGAGGCUCUU [#14 K4 Tryptophan B Exclusion] | 156 nM | 164 nM | 164 nM | 191 nM | 170 nM
12 | UUGGAGUGAUGUUCCAUAUCUUGAGCGGAAGGAGCGGCAAAAGUGCCAGGUAGGUCGCCGCAGAAGGUACCAGUGAUGUUGGAAA [Same State Arginine A GF 3] | 132 nM | 152 nM | 155 nM | 156 nM | 109 nM
13 | UUGGCAGUGAUGUUGCCAGAGUUCACCGAAGGAGCGGGUGAAAACCCAGGUAGGUCGCGGUAGCGGAGUGAUUCUCCGCGAGGGC [Same State Arginine A GF 22] | 90.5 nM | 91 nM | 86.2 nM | 93.7 nM | 91.4 nM
14 | UUGUAAAAGUCGGCCGCCACUCCGGGCCCUAUAAAUGGGCGCAGUGAUGUUGCGGCUAGGCCUCUGAGGACCGGGACUUUAUAGC [Xeismaarbe] | 115 nM | 85.1 nM | 125 nM | 66.8 nM | 201 nM
15 | UUGUUUUACUGAAGGAGCGGCAAUUGAUACGUAGAUAUAGUGAUGUUAUAUAAGAUAGAGAGCCAGGUAGGUCGCAGAUUUGUUU [ExArgB.U] | 221 nM | 193 nM | 188 nM | 183 nM | 173 nM
16 | UUUAAACAUAGUGAUGUUAUGUAACAAUGACGAGGACCGGUACGGCCGCCACUCGAGAGAGAUGAUGGUAAAAUAAAUAAUUUUC [#10 K4 Tryptophan A Same State] | 105 nM | 124 nM | 107 nM | 113 nM | 90.6 nM
17 | UUUAACGAGUGAUGUUCGAAAAGUAAUGGUUAGGAUAUCGUUUUUUCGAGAAGGAACCUCGAAGUGAUACGAAAGUAUCGCUUCG [FMN A 2] | 173 nM | 428 nM | 264 nM | 466 nM | 240 nM
18 | UUUAUUAAGACGGCCGCCACUGAUUCAUAGUGAUGUUAUGAUAUAAUUUUAGUGAUUUUGAUUAGCAGGACCGGGUCAAUUAUUA [JR_ExcTryptoB_Sub016] | 221 nM | 179 nM | 196 nM | 194 nM | 172 nM
